Experiments:
Assay in all cases: fluorescence anisotropy
Settings in all cases: FA: 25 mM HEPES pH 7.45, 150 mM NaCl, 5% glycerol, 10 nM probe, temperature not stated, EMSA: 250 nM probe in 25 mM HEPES pH 7.45, 100 mM NaCl
UPF2 MIF4G-D2 = UPF2 MIF4G-D2 (UniProt Q9HAU5)
UPF2 MIF4G-D1 = UPF2 MIF4G-D1 (UniProt Q9HAU5)
UPF2 MIF4G-D1-2 = UPF2 MIF4G-D1-2 (UniProt Q9HAU5)
UPF2L = UPF2L (UniProt Q9HAU5)
UPF2 MIF4G-D2-3 = UPF2 MIF4G-D2-3 (UniProt Q9HAU5)
UPF2 MIF4G-D3 = UPF2 MIF4G-D3 (UniProt Q9HAU5)
Chain of UPF2 MIF4G-D3 (Q9HAU5 761-1054): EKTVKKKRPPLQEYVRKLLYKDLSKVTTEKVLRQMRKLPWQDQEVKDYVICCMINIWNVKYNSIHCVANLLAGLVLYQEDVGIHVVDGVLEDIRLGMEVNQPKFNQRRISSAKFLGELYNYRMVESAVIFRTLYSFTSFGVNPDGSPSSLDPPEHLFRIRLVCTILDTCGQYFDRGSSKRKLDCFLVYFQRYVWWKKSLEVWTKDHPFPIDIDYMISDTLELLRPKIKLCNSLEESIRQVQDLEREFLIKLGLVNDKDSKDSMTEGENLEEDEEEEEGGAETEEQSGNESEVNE

Chain of UPF2L (Q9HAU5 121-1227): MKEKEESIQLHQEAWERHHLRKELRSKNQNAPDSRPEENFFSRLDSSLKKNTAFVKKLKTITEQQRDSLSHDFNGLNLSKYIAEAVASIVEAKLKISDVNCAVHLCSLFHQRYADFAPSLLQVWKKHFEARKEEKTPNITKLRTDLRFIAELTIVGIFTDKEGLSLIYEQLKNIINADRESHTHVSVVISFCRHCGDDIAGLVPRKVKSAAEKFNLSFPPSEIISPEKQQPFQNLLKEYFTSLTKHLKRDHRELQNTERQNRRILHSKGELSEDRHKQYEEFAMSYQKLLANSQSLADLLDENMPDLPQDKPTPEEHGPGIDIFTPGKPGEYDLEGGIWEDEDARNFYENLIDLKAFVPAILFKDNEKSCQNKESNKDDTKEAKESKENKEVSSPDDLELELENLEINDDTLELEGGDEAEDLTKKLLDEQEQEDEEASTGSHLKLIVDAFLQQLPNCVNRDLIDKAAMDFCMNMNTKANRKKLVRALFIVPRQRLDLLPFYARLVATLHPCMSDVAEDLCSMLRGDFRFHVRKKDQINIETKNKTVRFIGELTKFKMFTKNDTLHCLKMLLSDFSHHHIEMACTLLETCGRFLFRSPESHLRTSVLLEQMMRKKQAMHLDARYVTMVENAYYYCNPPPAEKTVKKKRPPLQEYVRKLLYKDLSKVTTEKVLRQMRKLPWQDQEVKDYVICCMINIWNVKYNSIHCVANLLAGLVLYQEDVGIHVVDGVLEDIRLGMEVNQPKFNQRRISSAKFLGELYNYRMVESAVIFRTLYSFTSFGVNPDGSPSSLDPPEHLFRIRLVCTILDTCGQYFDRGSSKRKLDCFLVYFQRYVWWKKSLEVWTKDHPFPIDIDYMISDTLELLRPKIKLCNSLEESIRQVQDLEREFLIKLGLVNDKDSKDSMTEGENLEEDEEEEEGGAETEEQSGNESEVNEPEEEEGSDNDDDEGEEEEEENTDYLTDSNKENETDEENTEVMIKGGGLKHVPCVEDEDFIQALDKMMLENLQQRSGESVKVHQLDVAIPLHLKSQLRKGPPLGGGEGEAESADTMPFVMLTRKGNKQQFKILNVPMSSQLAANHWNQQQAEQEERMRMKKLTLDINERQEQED
Chain of UPF2 MIF4G-D2 (Q9HAU5 455-757): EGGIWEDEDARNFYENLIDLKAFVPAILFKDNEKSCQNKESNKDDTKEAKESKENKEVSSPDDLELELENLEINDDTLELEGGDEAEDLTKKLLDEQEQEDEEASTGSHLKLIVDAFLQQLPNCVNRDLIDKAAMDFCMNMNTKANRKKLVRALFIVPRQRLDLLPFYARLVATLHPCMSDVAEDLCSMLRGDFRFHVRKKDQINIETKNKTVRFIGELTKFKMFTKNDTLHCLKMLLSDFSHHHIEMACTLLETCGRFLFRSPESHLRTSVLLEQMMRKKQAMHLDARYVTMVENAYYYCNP
Chain of UPF2 MIF4G-D2-3 (Q9HAU5 455-1054): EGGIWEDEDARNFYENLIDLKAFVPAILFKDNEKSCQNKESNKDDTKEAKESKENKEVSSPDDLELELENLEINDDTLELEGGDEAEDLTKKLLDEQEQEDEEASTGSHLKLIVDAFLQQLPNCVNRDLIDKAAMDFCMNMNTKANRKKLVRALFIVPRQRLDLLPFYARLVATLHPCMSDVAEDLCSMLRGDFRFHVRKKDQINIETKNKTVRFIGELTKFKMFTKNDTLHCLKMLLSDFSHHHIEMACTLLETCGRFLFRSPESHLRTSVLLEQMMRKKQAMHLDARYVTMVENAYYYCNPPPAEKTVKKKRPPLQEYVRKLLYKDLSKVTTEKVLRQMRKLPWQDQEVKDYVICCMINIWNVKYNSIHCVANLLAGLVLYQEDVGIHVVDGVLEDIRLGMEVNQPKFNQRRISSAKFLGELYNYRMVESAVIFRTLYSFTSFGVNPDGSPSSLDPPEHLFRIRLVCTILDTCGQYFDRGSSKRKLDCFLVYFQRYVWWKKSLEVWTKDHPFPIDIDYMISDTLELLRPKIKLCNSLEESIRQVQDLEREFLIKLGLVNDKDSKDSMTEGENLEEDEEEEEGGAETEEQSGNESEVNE
Chain of UPF2 MIF4G-D1 (Q9HAU5 120-486): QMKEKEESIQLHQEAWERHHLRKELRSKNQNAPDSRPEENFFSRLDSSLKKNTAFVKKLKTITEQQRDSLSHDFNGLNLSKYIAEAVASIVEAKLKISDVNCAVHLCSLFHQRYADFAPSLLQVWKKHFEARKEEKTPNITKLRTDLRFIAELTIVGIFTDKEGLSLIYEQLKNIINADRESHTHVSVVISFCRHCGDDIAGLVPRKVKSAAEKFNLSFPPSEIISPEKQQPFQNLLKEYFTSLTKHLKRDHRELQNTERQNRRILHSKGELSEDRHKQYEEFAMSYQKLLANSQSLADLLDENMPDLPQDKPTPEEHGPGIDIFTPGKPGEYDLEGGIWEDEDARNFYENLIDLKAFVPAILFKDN
Chain of UPF2 MIF4G-D1-2 (Q9HAU5 120-757): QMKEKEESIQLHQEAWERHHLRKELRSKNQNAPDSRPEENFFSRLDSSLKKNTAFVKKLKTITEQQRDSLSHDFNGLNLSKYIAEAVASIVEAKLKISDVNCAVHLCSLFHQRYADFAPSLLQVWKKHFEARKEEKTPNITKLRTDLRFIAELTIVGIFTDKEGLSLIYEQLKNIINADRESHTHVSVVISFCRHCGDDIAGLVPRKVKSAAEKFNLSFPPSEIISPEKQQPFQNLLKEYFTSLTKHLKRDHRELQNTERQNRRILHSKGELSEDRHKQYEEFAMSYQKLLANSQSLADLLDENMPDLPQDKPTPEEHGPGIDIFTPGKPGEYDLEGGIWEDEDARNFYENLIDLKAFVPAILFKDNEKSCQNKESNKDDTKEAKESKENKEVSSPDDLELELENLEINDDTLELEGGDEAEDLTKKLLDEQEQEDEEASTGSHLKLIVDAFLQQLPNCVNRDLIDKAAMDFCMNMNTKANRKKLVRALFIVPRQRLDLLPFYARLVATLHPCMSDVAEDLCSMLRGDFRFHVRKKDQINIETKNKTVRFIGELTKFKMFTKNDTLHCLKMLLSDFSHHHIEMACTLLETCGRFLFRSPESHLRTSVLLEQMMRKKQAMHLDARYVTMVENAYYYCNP

Substance	Kd (UPF2 MIF4G-D2) [nM]	Kd (UPF2 MIF4G-D1) [nM]	Kd (UPF2 MIF4G-D1-2) [nM]	Kd (UPF2L) [nM]	Kd (UPF2 MIF4G-D2-3) [nM]	Kd (UPF2 MIF4G-D3) [nM]
24 nt ss-RNA	3500	1400	784	135	530	694
13 nt PYR ss-RNA	–	–	–	650	–	529
24 nt ds-DNA	–	–	–	334	–	–
13 nt PUR ss-RNA	–	–	–	683	–	1280
24 nt ds-RNA	–	–	–	454	–	–
24 nt ss-DNA	–	–	–	431	–	–
